Key:
[1] = system: UWB1.289; assay: LDH release cytotoxicity on olaparib-treated UWB1.289; type: cell-based; conditions: UWB1.289, olaparib 3 μM three days vs DMSO, human PBMC
Description: The effect of the enhanced induction of CLDN6 expression in BRCA1-deficient ovarian cancer cell line UWB1.289, caused by the PARP inhibitor (olaparib), on the cytotoxic activity of anti-CLDN6/Dual-Fab tri-specific antibody CS4135 was assessed.
BRCA1-deficient ovarian cancer cell line UWB1.289 (ATCC) or BRAC1 wildtype ovarian cancer cell line OV-90 (ATCC) which express human CLDN6 were used as target cells.
Each target cell (3×10^5 cells) were seeded at 5 mL into a 25 cm^2-flask. Two flasks were prepared for each target cell. After culturing overnight, olaparib was added at a final concentration of 3 μM to one of the two flasks. DMSO was added to the other flask. After incubating the flasks for three days, the target cells were recovered, and the cytotoxic activity of the CS4135 antibody was evaluated by […] (LDH) release assay using human PBMC as the effector cell.

[2] = system: OV-90; assay: Mouse peritoneal dissemination model; type: in vivo, NOD/ShiJic-scid Jcl mice; conditions: 5 mg/kg iv
Description: To evaluate the effect of anti-CLDN6/Dual-Fab tri-specific antibody CS4135 (the same antibody as PPU4135 described in Table 9 of Example 6 described above) against peritoneal metastasis of ovary cancer, the drug efficacy was evaluated using a mouse peritoneal dissemination model. Human ovarian cancer cell line OV-90 (ATCC) was used as target cells. OV-90 cells were transplanted intraperitoneally to NOD/ShiJic-scid Jcl mice at 5×10^6 cells/500 μL/animal. Three days after transplantation, human T cells separated from human PBMC and expansively cultured using Dynabeads Human T-Activator CD3/CD28 (Gibco) were administered intravenously at 3×10^7 cells/400 μL. Furthermore, the vehicle (PBS containing 0.05% Tween-20) or a CS4135 antibody solution at 5 mg/kg was administered intravenously.
After tumor transplantation, the mice were observed every 2 to 7 days, and the conditions of the mice were assessed according to the humane endpoint guideline.

[3] = target: recombinant human CD3eg (Homo sapiens, UniProt P07766+P09693); assay: Biacore 8K SPR affinity to human CD3eg; type: binding; conditions: 25 degree C, pH 7.4
Description: (§1) The binding affinity of the anti-CLDN6/Dual-Fab tri-specific antibody against recombinant human and cyno CD3eg (gamma and epsilon subunits of CD3) at pH 7.4 was determined at 25 degree C. using Biacore 8K instrument (GE Healthcare). The binding affinity of the anti-CLDN6/Dual-Fab tri-specific antibody against recombinant human and cyno CD137 at pH 7.4 was determined at 37 degree C. using Biacore 8K instrument (GE Healthcare). Anti-human Fc (GE Healthcare) antibody was immobilized onto all flow cells of a CM4 sensor chip using amine coupling kit (GE Healthcare). Tested antibody and analytes were prepared in ACES pH 7.4 containing 20 mM ACES, 150 mM NaCl, 0.05% Tween 20, 0.005% NaN3. Anti-CLDN6/Dual-Fab tri-specific antibody was captured onto the sensor surface by anti-human Fc. Antibody capture levels were aimed at 300 resonance unit (RU). Recombinant CD3eg and CD137 were injected at both 500 and 2000 nM, followed by dissociation. Sensor surface was regenerated each cycle with 3M MgCl2. […] Binding affinities were determined by processing and fitting the data to 1:1 binding model using Biacore Insight Evaluation software (GE Healthcare).

[4] = target: T1, recombinant cyno CD3eg (Macaca fascicularis, UniProt Q95LI5); assay: Biacore 8K SPR affinity to cyno CD3eg; type: binding, cynomolgus; conditions: 25 degree C, pH 7.4
T1 sequence (Q95LI5 22-117 limits assumed): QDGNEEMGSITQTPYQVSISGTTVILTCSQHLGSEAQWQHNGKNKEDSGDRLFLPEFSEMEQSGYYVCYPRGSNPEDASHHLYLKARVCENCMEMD
T1 sequence (Q95LI7 23-115 partner limits assumed): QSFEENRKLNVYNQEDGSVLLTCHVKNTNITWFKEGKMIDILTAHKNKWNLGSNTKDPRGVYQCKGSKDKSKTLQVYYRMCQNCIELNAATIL
Description: as §1

[5] = system: CLDN6-LLC1; assay: CLDN6-LLC1 syngenic model, CS4135 single agent; type: in vivo, hCD137 KI/hCD3Tg mice
Description: In this test, lung cancer cell line LLC1 forced to express claudin 6 (CLDN6) (CLDN6-LLC1) and hCD137 KI/hCD3Tg mice (described in the above-mentioned Example 7) were used. The CLDN6-LLC1 cell line was transplanted subcutaneously to the right flank of the mice, and the mice were divided into groups 7 days after transplantation. Individuals whose tumor volume reached 262 to 353 mm^3 were divided into groups. The vehicle and CS4135 were administered into the mouse tail vein 8 days after transplantation. PBS containing 0.05% Tween-20 was used as the vehicle.
Tumor volume was measured 7, 10, and 14 days after transplantation, and the average tumor volume was indicated for each group. The tumor volume was calculated by the following equation: […]
(§2) Tumor Growth Inhibition (TGI) was calculated by the following equation: […]
The resected tumor tissue was weighed, and then a lymphocyte fraction was isolated. The lymphocyte fraction obtained by tissue disruption using a Tumor Dissociation Kit, mouse (Miltenyi Biotec) and then by use of a cell strainer was used. The obtained tumor-derived lymphocyte fraction was subjected to flow cytometry (FCM) analysis.
FCM was used to analyze the number of tumor-derived T cells. The number of CD8-positive T cells per tumor weight was calculated using the tumor weight value and the number of CD8-positive T cells according to FCM. […]

[6] = system: SNG-M; assay: SNG-M xenograft in huNOG mice, combination with carboplatin; type: in vivo; conditions: 30 days after transplantation; CS4135 0.5 mg/kg iv day 13, carboplatin 40 mg/kg ip days 13, 16, 20
Description: In this test, NOG (huNOG) mice (described in the aforementioned Example 13) transplanted with human uterus cancer cell line SNG-M and human CD34-positive cells were used. The SNG-M cell line was transplanted subcutaneously to the right flank of the mice, and the mice were divided into groups 13 days after transplantation. Individuals whose tumor volume reached 130 to 244 mm^3 were divided into groups. Vehicle 1 and CS4135 were administered into the mouse tail vein 13 days after transplantation. PBS containing 0.05% Tween-20 was used as Vehicle 1. Vehicle 2 and carboplatin (Bristol Myers Squibb Company) were administered intraperitoneally to the mice 13, 16, and 20 days after transplantation. Physiological saline was used as Vehicle 2.
Tumor volume was measured 13, 16, 20, 23, 26, and 30 days after transplantation, and the average tumor volume was indicated for each group.
The tumor volume was calculated by the following equation: […]
as §2

Sequence of recombinant human CD3eg (P07766+P09693 fused): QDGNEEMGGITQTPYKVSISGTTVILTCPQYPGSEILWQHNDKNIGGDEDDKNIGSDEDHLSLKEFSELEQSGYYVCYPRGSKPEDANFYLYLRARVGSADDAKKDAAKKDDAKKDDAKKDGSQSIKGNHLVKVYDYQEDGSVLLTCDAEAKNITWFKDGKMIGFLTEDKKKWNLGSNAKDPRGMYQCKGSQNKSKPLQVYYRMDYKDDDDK

B1: PPU4135: anti-CLDN6/Dual-Fab tri-specific antibody, chains SEQ ID NOs 42, 51, 56, 69; CS4135 same antibody (protein)
chain 1: QVQLVESGGGVVQPGGSLRLSCAASGFTFSSYTMSWVRQAPGQGLEWMGTISSGGGRTYYPDSVKGRFTISRDNSKNTLYLQMNSLRDEDTAVYYCARGDYRYDGFAYWGEGTLVTVSSASTKGPSVFPLAPSSKSTSGGTAALGCLVEDYFPEPVTVSWNSGALTSGVHTFPAVLESSGLYSLSSVVTVPSSSLGTQTYICNVNHKPSNTKVDKRVEPKSCDKTHTCPPCPAPEAAGGPSVFLFPPKPKDTLMISRTPEVTCVVVDVSHEDPEVKFNWYVDGVEVHNAKTKPREEQYASTYRVVSVLTVLHQDWLNGKEYKCKVSNKALPAPIEKTISKAKGQPREPQVYTLPPSREEMTKNQVSLTCLVKGFYPSDIAVEWESNGQPENNYKTTPPVLDSDGSFFLYSKLTVDKSRWQQGNVFSCSVMHEALHNHYTQESLSLSP
chain 2: DIQMTQSPSSLSASVGDRVTITCRASYNIDSYLAWYQQKPGKAPELLIYYSTLLVDGVPDRFSGSRSGTDFTLTISSLQPEDFATYYCQHYYSIPYTFGQGTKVEIERTVAAPSVFIFPPSDEQLKSGTAKVVCLLNNFYPREAKVQWKVDNALQSGNSKESVTEQDSKDSTYSLSSTLTLSKADYEKHKVYACEVTHQGLSSPVTKSFNRGEC
chain 3: QVQLVESGGGLVQPGRSLRLSCAASGFKFSNVWFHWVRQAPGKGLEWVAQIKDYYNAYAAYYAPSVKGRFTISRDDSKNSIYLQMNSLKTEDTAVYYCHYVHYASASTLLPAEGVDAWGQGTTVTVSSASTKGPSVFPLAPSSKSTSGGTAALGCLVKDYFPEPVTVSWNSGALTSGVHTFPAVLKSSGLYSLSSVVTVPSSSLGTQTYICNVNHKPSNTKVDKRVEPKSCDKTHTCPPCPAPEAAGGPSVFLFPPKPKDTLMISRTPEVTCVVVDVSHEDPEVKFNWYVDGVEVHNAKTKPREEQYASTYRVVSVLTVLHQDWLNGKEYKCKVSNKALPAPIEKTISKAKGQPREPQVYTLPPSRKEMTKNQVSLTCLVKGFYPSDIAVEWESNGQPENNYKTTPPVLDSDGSFFLYSKLTVDKSRWQQGNVFSCSVMHEALHNHYTQKSLSLSP
chain 4: DIVMTQSPLSLPVTPGEPASISCQPSQEVVHMNRNTYLHWYQQKPGQAPRLLIYKVSNRFPGVPDRFSGSGSGTDFTLKISRVEAEDVGVYYCAQGTSHPFTFGQGTKLEIKRTVAAPSVFIFPPSDEQLKSGTAEVVCLLNNFYPREAKVQWKVDNALQSGNSEESVTEQDSKDSTYSLSSTLTLSKADYEKHKVYACEVTHQGLSSPVTKSFNRGEC
- cytotoxic activity after addition of olaparib [1]: enhancement of cytotoxicity
- 50% survival rate found [2]: 71 days after transplantation
- mice showing aggravated conditions observed from ([2]; vehicle from 48 days): 57 days after transplantation
- survival rate ([2]; 66 days after transplantation): 78%
- survival rate ([2]; 80 days after transplantation): 22%
- ka [3]: 78000 M⁻¹ s⁻¹
- kd [3]: 0.0266 s⁻¹
- ka [4]: 101000 M⁻¹ s⁻¹
- kd [4]: 0.0332 s⁻¹
- Tumor growth inhibition: TGI ([5]; 14 days after transplantation, 0.25 mg/kg iv day 8): 71%
- number of CD8-positive T cells per tumor weight ([5]; 14 days after tumor transplantation (Day 6 after administration), 0.25 mg/kg): significant increase
- Tumor growth inhibition: TGI [6]: 35%

From US20240425589A1, “CYTOTOXICITY-INDUCING THERAPEUTIC AGENT FOR USE IN TREATMENT OF CANCER” (CHUGAI SEIYAKU KABUSHIKI KAISHA, priority 2021, published 2024)
